B1: 2K2A (parent)
chain: ELREAFRLYDKEGNGYISTDVMREILAELDETLSSEDLDAMIDEIDADGSGTVDFEEFMGVMT

Variants of: B1
Assay: folding stability dG (cDNA display proteolysis); higher = more stable
Conditions: PBS, room temperature

Point of comparison: ELREAFRLDDKEGNGYISTDVMREILAELDETLSSEDLDAMIDEIDADGSGTVDFEEFMGVMT, “folding stability dG” value 0.261 kcal/mol. Against it:
- ELREAFRSYDKEGNGYISTDVMREILAELDETLSSEDLDAMIDEIDADGSGTVDFEEFMGVMT — higher, 1.92 kcal/mol
- ELREAFRPYDKEGNGYISTDVMREILAELDETLSSEDLDAMIDEIDADGSGTVDFEEFMGVMT — higher, 0.853 kcal/mol
- ELREAFRWYDKEGNGYISTDVMREILAELDETLSSEDLDAMIDEIDADGSGTVDFEEFMGVMT — higher, 1.83 kcal/mol
- ELREAFRAYDKEGNGYISTDVMREILAELDETLSSEDLDAMIDEIDADGSGTVDFEEFMGVMT — higher, 2.18 kcal/mol
- ELREAFRKYDKEGNGYISTDVMREILAELDETLSSEDLDAMIDEIDADGSGTVDFEEFMGVMT — higher, 2.44 kcal/mol
- ELREAFRIYDKEGNGYISTDVMREILAELDETLSSEDLDAMIDEIDADGSGTVDFEEFMGVMT — higher, 1.8 kcal/mol
- ELREAFRNYDKEGNGYISTDVMREILAELDETLSSEDLDAMIDEIDADGSGTVDFEEFMGVMT — higher, 1.85 kcal/mol
- ELREAFRYYDKEGNGYISTDVMREILAELDETLSSEDLDAMIDEIDADGSGTVDFEEFMGVMT — higher, 1.98 kcal/mol
- ELREAFRGYDKEGNGYISTDVMREILAELDETLSSEDLDAMIDEIDADGSGTVDFEEFMGVMT — higher, 1.73 kcal/mol
- ELREAFRMYDKEGNGYISTDVMREILAELDETLSSEDLDAMIDEIDADGSGTVDFEEFMGVMT — higher, 2.05 kcal/mol
- ELREAFREYDKEGNGYISTDVMREILAELDETLSSEDLDAMIDEIDADGSGTVDFEEFMGVMT — higher, 1.52 kcal/mol
- ELREAFRFYDKEGNGYISTDVMREILAELDETLSSEDLDAMIDEIDADGSGTVDFEEFMGVMT — higher, 2.1 kcal/mol
- ELREAFRLYDKDGNGYISTDVMREILAELDETLSSEDLDAMIDEIDADGSGTVDFEEFMGVMT — higher, 1.85 kcal/mol
- ELREAFRLYDKAGNGYISTDVMREILAELDETLSSEDLDAMIDEIDADGSGTVDFEEFMGVMT — higher, 1.57 kcal/mol
- ELREAFRLYDKCGNGYISTDVMREILAELDETLSSEDLDAMIDEIDADGSGTVDFEEFMGVMT — higher, 1.61 kcal/mol
- ELREAFRLMDKEGNGYISTDVMREILAELDETLSSEDLDAMIDEIDADGSGTVDFEEFMGVMT — higher, 1.43 kcal/mol
- ELREAFRLPDKEGNGYISTDVMREILAELDETLSSEDLDAMIDEIDADGSGTVDFEEFMGVMT — lower, 0.057 kcal/mol
- ELREAFRLCDKEGNGYISTDVMREILAELDETLSSEDLDAMIDEIDADGSGTVDFEEFMGVMT — higher, 1.94 kcal/mol
- ELREAFRLKDKEGNGYISTDVMREILAELDETLSSEDLDAMIDEIDADGSGTVDFEEFMGVMT — higher, 0.775 kcal/mol
- ELREAFRLEDKEGNGYISTDVMREILAELDETLSSEDLDAMIDEIDADGSGTVDFEEFMGVMT — higher, 0.654 kcal/mol
- ELREAFRLGDKEGNGYISTDVMREILAELDETLSSEDLDAMIDEIDADGSGTVDFEEFMGVMT — lower, 0.24 kcal/mol
- ELREAFRLIDKEGNGYISTDVMREILAELDETLSSEDLDAMIDEIDADGSGTVDFEEFMGVMT — higher, 1.31 kcal/mol
- ELREAFRLWDKEGNGYISTDVMREILAELDETLSSEDLDAMIDEIDADGSGTVDFEEFMGVMT — higher, 2 kcal/mol
- ELREAFRLSDKEGNGYISTDVMREILAELDETLSSEDLDAMIDEIDADGSGTVDFEEFMGVMT — higher, 0.532 kcal/mol
- ELREAFRLTDKEGNGYISTDVMREILAELDETLSSEDLDAMIDEIDADGSGTVDFEEFMGVMT — lower, 0.17 kcal/mol
- ELREAFRLRDKEGNGYISTDVMREILAELDETLSSEDLDAMIDEIDADGSGTVDFEEFMGVMT — higher, 1.32 kcal/mol
- ELREAFRLVDKEGNGYISTDVMREILAELDETLSSEDLDAMIDEIDADGSGTVDFEEFMGVMT — higher, 0.891 kcal/mol
- ELREAFRLLDKEGNGYISTDVMREILAELDETLSSEDLDAMIDEIDADGSGTVDFEEFMGVMT — higher, 2.07 kcal/mol
- ELREAFRLHDKEGNGYISTDVMREILAELDETLSSEDLDAMIDEIDADGSGTVDFEEFMGVMT — higher, 1.59 kcal/mol
- ELREAFRLADKEGNGYISTDVMREILAELDETLSSEDLDAMIDEIDADGSGTVDFEEFMGVMT — higher, 1.56 kcal/mol
- ELREAFRLQDKEGNGYISTDVMREILAELDETLSSEDLDAMIDEIDADGSGTVDFEEFMGVMT — higher, 0.85 kcal/mol
- ELREAFRLNDKEGNGYISTDVMREILAELDETLSSEDLDAMIDEIDADGSGTVDFEEFMGVMT — higher, 0.71 kcal/mol
- ELREAFRLFDKEGNGYISTDVMREILAELDETLSSEDLDAMIDEIDADGSGTVDFEEFMGVMT — higher, 1.59 kcal/mol
- ELREAFTLYDKEGNGYISTDVMREILAELDETLSSEDLDAMIDEIDADGSGTVDFEEFMGVMT — higher, 1.75 kcal/mol
- ELREAFVLYDKEGNGYISTDVMREILAELDETLSSEDLDAMIDEIDADGSGTVDFEEFMGVMT — higher, 1.62 kcal/mol
- ELREAFPLYDKEGNGYISTDVMREILAELDETLSSEDLDAMIDEIDADGSGTVDFEEFMGVMT — higher, 0.375 kcal/mol
- ELREAFSLYDKEGNGYISTDVMREILAELDETLSSEDLDAMIDEIDADGSGTVDFEEFMGVMT — higher, 1.97 kcal/mol
- ELREAFQLYDKEGNGYISTDVMREILAELDETLSSEDLDAMIDEIDADGSGTVDFEEFMGVMT — higher, 1.96 kcal/mol
- ELREAFNLYDKEGNGYISTDVMREILAELDETLSSEDLDAMIDEIDADGSGTVDFEEFMGVMT — higher, 2.06 kcal/mol
- ELREAFYLYDKEGNGYISTDVMREILAELDETLSSEDLDAMIDEIDADGSGTVDFEEFMGVMT — higher, 1.67 kcal/mol
- ELREAFMLYDKEGNGYISTDVMREILAELDETLSSEDLDAMIDEIDADGSGTVDFEEFMGVMT — higher, 2.12 kcal/mol
- ELREAFWLYDKEGNGYISTDVMREILAELDETLSSEDLDAMIDEIDADGSGTVDFEEFMGVMT — higher, 1.76 kcal/mol

From the MegaScale stability set (Tsuboyama et al. 2023)
